# Experimental data taken from the RNAGym collection of RNA variant scans (doi:10.7554/elife.90254).
# B1: LINE1-full (parent)
# chain: UACGUAGGUGGUUUUCCCCUGAUAGUGCUAAGGGGGCCUGGAAGUUUGGACUGGGCAGAGCUCAACACAGCGUGGCAAAGUGGCUGUGGCUAGACUGCCUCUCUGGAUUCCUCGUCACUCAGCAGGGCAUCUCUGAGAGAAAUGCC
# Variants of: B1
# Assay: self-cleavage, relative activity (ratio to wild type); higher = more cleavage; in vitro, sequencing; the parent is a self-cleaving ribozyme
row,Variant,self-cleavage
1,G75A G105U,0.67
2,U9A C90A,0.04
3,A30U U134C,1.22
4,A24G G139U,2.56
5,U47C A94C,0.12
6,U23C C101U,1.31
7,C37U G86A,0.1
8,G7C A69G,0.79
9,U1C A31U,0.61
10,A31G A64U,0.48
11,G135A C145U,1.46
12,A59U U102C,0.94
13,C3U U132C,1.1
14,U96A U130A,0.05
15,A2U,0.98
16,U12G A129G,1.14
17,A64U U73C,0.58
18,C56A U96C,0.05
19,A42G U104G,0.8
20,A124G U132A,0.87
21,U62C A140G,0.04
22,C3U G72A,0.05
23,A24G U109C,0.76
24,A22C U102C,1.55

row,Variant,self-cleavage
1,U20C C66U,0
2,U23A U100C,1.26
3,U23A U100A,0.86
4,A2U U9C,0.7
5,A42G A138G,1.34
6,G75U A78U,1.49
7,U26A A78G,0.74
8,U26C U87A,0.08
9,U46C G105A,1.16
10,U15C G32C,1.16
11,G86A A136U,0.06
12,G8A A141G,1.1
13,G80U A141G,1.1
14,U14G C38G,1.12
15,C28U A43C,1.2
16,G88A,0.04
17,A92U A138G,0.75
18,C38U A78G,1.28
19,U52A G75U,0.45
20,U15C U143G,2.03
21,U26A A77G,1.84
22,C3A G72A,0.38
23,U29A U45G,0.38
24,U9G A94G,0.22

row,Variant,self-cleavage
1,A67G C84G,0.04
2,A67G C84U,0.04
3,U112G G139A,1.15
4,U47G G97A,0.05
5,A42U U100C,1.32
6,U5C A64U,0.49
7,C19U U102C,0.73
8,U13C G144A,1.91
9,A107G U119G,0.84
10,C90G U109C,0.07
11,A69G G139U,0.36
12,U39A A121G,1.69
13,U102C C131U,0.87
14,U73C G144A,1.77
15,C19U U115C,1.79
16,A64U C95U,0.07
17,U1C C76U,1.56
18,U13A A50G,0.76
19,U20G U46C,2.3
20,U29C A77U,1.63
21,U12G C84U,0.2
22,U9A C37U,0.63
23,G97C U102C,0.14
24,A79G U87C,0.17

row,Variant,self-cleavage
1,G70A A129G,0.09
2,U15C A64C,0.64
3,U85A A142C,0.14
4,U45C U132A,1.96
5,C19U U112C,1.13
6,A69C U143G,0
7,G4A U85A,0.04
8,U20C G48U,1.27
9,C76U A94G,0.18
10,U39C G83A,0.2
11,A43G U143G,1.42
12,U91C U108A,0.55
13,A136U A138G,1.55
14,A24G A92U,1.34
15,C68A U109C,0.06
16,U39C G54U,0.39
17,U12C A92C,0.81
18,U15A A50G,0.67
19,A67U A124C,0.17
20,C28U A138G,1.01
21,U9A C145U,1.64
22,A22U A124G,0.47
23,A78U U109A,1.84
24,A65G C110U,0.07

row,Variant,self-cleavage
1,U12G G40A,1.41
2,G36U A77G,2.39
3,U73C C98A,0.21
4,U81C U87C,0.4
5,C3U U104C,1.53
6,U13A U81A,1.81
7,A77G A140G,1.7
8,C38U A142G,1.4
9,U5C U91G,0
10,G34U A140U,1.64
11,A22G U87A,0.22
12,A64U C68A,0.01
13,A78U U119A,1.82
14,A65U C76U,0.22
15,A69G U130C,0.67
16,U5A C98U,0.53
17,A57U U134A,0.1
18,A31G A141G,1.1
19,G54C U143A,1.3
20,U46A A124U,1.11
21,U15A U112C,1.51
22,G125C A138G,1.9
23,C3A A30G,1.39
24,A22G A117G,0.97

row,Variant,self-cleavage
1,C61U U91C,0.03
2,U100C A107U,1.21
3,U47A C84U,0.09
4,A43G U104G,1.78
5,C103U G114C,1.5
6,U81A A142G,2.07
7,A107U A121G,1.62
8,A42G U109C,1.24
9,U14C C51G,1.84
10,U26G G27A,1.01
11,A124U,1.4
12,A124C,1.56
13,U14C C61G,0.1
14,C110A G139C,1.08
15,U47G U85A,0.05
16,G11A U108C,1.58
17,C76U A117C,2.66
18,A50G A141U,1.54
19,C18A U46C,1.65
20,G7U A65U,0.17
21,U20G U96G,0
22,U9A A117G,0.96
23,U12G A64G,0.52
24,A94G A141G,0.25

row,Variant,self-cleavage
1,G80U,1.36
2,A64G G72A,0.19
3,U5C U134A,0.62
4,U109C A138G,1.69
5,U108C C120A,1.45
6,A64U A140G,0.39
7,U5C U52G,1.23
8,A6G A42U,0.82
9,A42G A69G,0.54
10,U5C G41U,1.03
11,U46G A79U,2.15
12,A69G A129U,0.58
13,A117G U143A,0.83
14,A31G A67G,0.5
15,A43C C99U,0.98
16,A43C A136U,1.64
17,U45A A65G,0.07
18,A78U G89C,0.08
19,U87G A124U,0.17
20,U119G U134C,1.76
21,A77C U115A,1.28
22,C84G G93A,0.08
23,U1C U13C,0.62
24,U26C C133U,0.98

row,Variant,self-cleavage
1,A136U A141G,1.3
2,U52G A136U,1.1
3,U45A A92C,0.14
4,U12C C18G,2.1
5,U73C U100C,1.99
6,G60U A121C,0.03
7,G72C A94G,0.18
8,G27A U134C,1.58
9,G34U A136G,1.54
10,U26G G125U,1.59
11,A77U A141G,1.4
12,U14C C145U,1.41
13,U14A U130C,0.83
14,G32A U112C,1.36
15,A92G C131G,0.22
16,G35U,1.22
17,A65G A69U,0.07
18,G80U G144A,1.57
19,A79G U100C,1.46
20,A43G U112A,1.4
21,A42G C101U,1.75
22,U26G C38U,0.91
23,U29C C63U,0.48
24,C113G U119A,1.38

row,Variant,self-cleavage
1,A138G C145A,2.76
2,C16A A117G,1.01
3,G36A C118G,1.04
4,A50G A136G,1.04
5,U20G U29C,1.36
6,U109A G126A,1.34
7,G10A U12C,1.04
8,U52C A92G,0.1
9,G40A U52A,1.25
10,A24U G86U,0.13
11,A92U G139A,0.76
12,U29C U100C,1.49
13,U12G A42C,1.1
14,U102C C123U,1.21
15,U62C C101A,0.04
16,U62C C101U,0.07
17,U96A A121U,0.05
18,A57U A129G,0.13
19,U45A U119C,1.47
20,U39G U102C,1.34
21,U112C G135A,1.44
22,U9A U81C,1.1
23,U46G A129G,1.93
24,U5A U87A,0.15

row,Variant,self-cleavage
1,A92G A117U,0.08
2,A78G A136G,1.45
3,G49A A141G,1.64
4,U12C A69C,0.09
5,U23C G127C,1.12
6,A42G C56U,0.26
7,G27A A129G,2.07
8,A94G U134A,0.21
9,C3U A124U,1
10,U73C U104G,1.71
11,A30G C110U,1.25
12,G53A U100C,1.09
13,A64U U109C,0.25
14,A78G U91A,0.38
15,A59G C113U,0.06
16,U132C G139U,2.66
17,U1A U112A,1.2
18,A78G G89A,0.04
19,U108C A142G,1.94
20,U20C G36A,1.23
21,A65G G97A,0.03
22,G48U U81A,1.8
23,U115C G144A,2.69
24,A78U U100C,2.81

row,Variant,self-cleavage
1,A67G G93A,0.02
2,U47C G127A,1.31
3,A50C U112C,1.36
4,C56U U85A,0.04
5,A77G G80U,2.02
6,C111U A136G,1.26
7,G33A U100C,1.28
8,A65C G105U,0.03
9,C16A U96G,0.08
10,C16A U96C,0.04
11,G35U G40A,0.85
12,G72U C116A,1.23
13,U85G U108C,0.22
14,U5C G35U,1.19
15,C38U A138C,1.46
16,U9C U81G,1.31
17,A42G G144U,1.65
18,A59G U102C,0.1
19,U1A A142G,1.19
20,G127C C145U,1.01
21,U23A U52C,0.75
22,U104C U130G,1.5
23,U9A G93U,0.3
24,G58U U100G,0.2

row,Variant,self-cleavage
1,A2G G105A,1.27
2,A129C U143C,1.74
3,U39A A140G,1.36
4,C37U A124G,0.59
5,U23C C95U,0.22
6,U119C A136U,1.87
7,U12G G97U,0.07
8,A22G A30G,0.86
9,U15C G35U,1.55
10,U85A G125A,0.04
11,C38U U47G,0.78
12,U39A A42U,1.35
13,A65G C95A,0.04
14,A65G G74A,0.01
15,G83A U112C,0.54
16,A42G C146G,0.45
17,A57U U62C,0.05
18,U29C A121U,1.5
19,U46A C68U,0.07
20,U73A G126A,0.57
21,U119C U143C,1.49
22,U23G U115C,1.29
23,U14C A94G,0.31
24,A59G A117C,0.2

row,Variant,self-cleavage
1,U12G U62A,0.16
2,A94U G144A,0.4
3,U13C A121G,1.52
4,U9C A64G,0.45
5,A64U A129G,0.66
6,A57U C110A,0.19
7,A124G G126A,1.22
8,U85A C113U,0.06
9,U12G A43U,0.81
10,A69U U100C,0.08
11,A57C A121U,0.03
12,U46C C61U,0.04
13,U46C G93A,0.07
14,C113A U130C,0.44
15,U87A A94U,0.04
16,A64G G89U,0
17,A140U A141G,1.41
18,A22U A67C,0.05
19,G88A U102C,0.06
20,A30U U108C,0.41
21,A64G A94U,0.08
22,A24U U73C,1.79
23,G83A G97C,0.18
24,A24C,1.62

row,Variant,self-cleavage
1,A107C A136U,1.2
2,C61A A107G,0
3,U12G G114A,1.07
4,U20A C120U,1.32
5,G86A A121U,0.26
6,A30G G83C,0.66
7,U12A A30G,0.94
8,A69G C98U,0.04
9,U12C U91C,0.92
10,A65G C84U,0.06
11,U85C U119C,0.28
12,U29C U104A,1.12
13,U102A A124U,1.46
14,U46C G82A,2.42
15,G86U A129G,0.09
16,U29C G89A,0.06
17,G114C A138G,1.41
18,A24U C116A,1.7
19,A129G U134A,0.89
20,A92G A121G,0.11
21,C38U C98G,0.12
22,C56U A129G,0.22
